Paper PMC9352680, “A comprehensive thermodynamic model for RNA binding by the Saccharomyces cerevisiae Pumilio protein PUF4”

Molecular target: T1, PUF4 RNA-binding domain (Saccharomyces cerevisiae, UniProt P25339 537-888)
T1 sequence: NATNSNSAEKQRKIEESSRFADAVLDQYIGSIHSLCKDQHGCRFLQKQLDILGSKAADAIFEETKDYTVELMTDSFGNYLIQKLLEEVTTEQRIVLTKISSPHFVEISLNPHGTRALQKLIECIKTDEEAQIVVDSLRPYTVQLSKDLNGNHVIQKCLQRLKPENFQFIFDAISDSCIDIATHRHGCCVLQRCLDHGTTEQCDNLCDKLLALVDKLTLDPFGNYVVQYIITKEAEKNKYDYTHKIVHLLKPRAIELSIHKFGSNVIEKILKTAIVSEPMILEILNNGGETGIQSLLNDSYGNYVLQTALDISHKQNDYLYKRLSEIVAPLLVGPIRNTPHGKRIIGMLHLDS
Experiment: Mg; RNA-MaP; 20 mM Na-HEPES pH 7.4, 30 mM KOAc, 0.75 mM MgCl2, 0.1% Tween-20, 5% glycerol, 0.1 mg/mL BSA, 2 mM DTT; 25 C; 0.0125-409.6 nM protein
Conditions: tags: N-His6-TEV cleaved; C-SNAP kept, Cy3B-labelled; label: tethered on chip by stalled RNA polymerase

Binder	Kd [nM]
UCUCUUUGUACUGUGUCUCUU (ssRNA) [Ic_S1_P4E.1_K4.1_C4.1_H4.1_A4.1_[T5C]_[A6T]_[T7G]_F4.1_[A9G]_T4.1]	50.5
UCUCUUUGUACCUAAUCUCUU (ssRNA) [Ic_S1_P4E.1_K4.1_C4.1_H4.1_A4.1_[T5C]_[A6C]_F4.1_[T8A]_T4.1]	66.3
UCUCUUUGUACCCUGUCUCUU (ssRNA) [Ic_S1_P4E.1_K4.1_C4.1_H4.1_A4.1_[T5C]_[A6C]_[T7C]_F4.1_[A9G]_T4.1]	32.7
UCUCUUUGUGUAAAUCUCUU (ssRNA) [Ib_S1_P3E.1_K3.1_C3.1_H3.1_[A4G]_A3.1_F3.1_[T7A]_T3.1]	202
UCUCUUUGUACUCUUUCUCUU (ssRNA) [Ic_S1_P4E.1_K4.1_C4.1_H4.1_A4.1_[T5C]_[A6T]_[T7C]_F4.1_[A9T]_T4.1]	33.7
UCUCUUUGUACCAUGUCUCUU (ssRNA) [Ic_S1_P4E.1_K4.1_C4.1_H4.1_A4.1_[T5C]_[A6C]_[T7A]_F4.1_[A9G]_T4.1]	3.4
UCUCUUUGUACCUAUUCUCUU (ssRNA) [Ic_S1_P4E.1_K4.1_C4.1_H4.1_A4.1_[T5C]_[A6C]_F4.1_[T8A]_[A9T]_T4.1]	24.6
UCUCUUUGUACUCACUCUCUU (ssRNA) [Ic_S1_P4E.1_K4.1_C4.1_H4.1_A4.1_[T5C]_[A6T]_[T7C]_F4.1_[T8A]_[A9C]_T4.1]	1060
UCUCUUUGUACCUCCUCUCUU (ssRNA) [Ic_S1_P4E.1_K4.1_C4.1_H4.1_A4.1_[T5C]_[A6C]_F4.1_[T8C]_[A9C]_T4.1]	570
UCUCUUUGUACCUGUUCUCUU (ssRNA) [Ic_S1_P4E.1_K4.1_C4.1_H4.1_A4.1_[T5C]_[A6C]_F4.1_[T8G]_[A9T]_T4.1]	94
UCUCUUUGUACCAUUUCUCUU (ssRNA) [Ic_S1_P4E.1_K4.1_C4.1_H4.1_A4.1_[T5C]_[A6C]_[T7A]_F4.1_[A9T]_T4.1]	9.07
UCUCUUUGUACUGUAUCUCUU (ssRNA) [Ic_S1_P4E.1_K4.1_C4.1_H4.1_A4.1_[T5C]_[A6T]_[T7G]_F4.1_T4.1]	5.91
UCUCUUUGUACUCAGUCUCUU (ssRNA) [Ic_S1_P4E.1_K4.1_C4.1_H4.1_A4.1_[T5C]_[A6T]_[T7C]_F4.1_[T8A]_[A9G]_T4.1]	738
UCUCUUAGUAUAUGUCUCUU (ssRNA) [Ib_S1_P3E.1_K3.1_C3.1_H3.1_[T1A]_A3.1_F3.1_[A8G]_T3.1]	> 2300
UCUCUUUGUACCUUGUCUCUU (ssRNA) [Ic_S1_P4E.1_K4.1_C4.1_H4.1_A4.1_[T5C]_[A6C]_F4.1_[A9G]_T4.1]	27.3
UCUCUUUGUACCUUUUCUCUU (ssRNA) [Ic_S1_P4E.1_K4.1_C4.1_H4.1_A4.1_[T5C]_[A6C]_F4.1_[A9T]_T4.1]	34.8
UCUCUUGGUAUAUUUCUCUU (ssRNA) [Ib_S1_P3E.1_K3.1_C3.1_H3.1_[T1G]_A3.1_F3.1_[A8T]_T3.1]	1250
UCUCUUUGUACCUCUUCUCUU (ssRNA) [Ic_S1_P4E.1_K4.1_C4.1_H4.1_A4.1_[T5C]_[A6C]_F4.1_[T8C]_[A9T]_T4.1]	587
UCUCUUUGUACUCCUUCUCUU (ssRNA) [Ic_S1_P4E.1_K4.1_C4.1_H4.1_A4.1_[T5C]_[A6T]_[T7C]_F4.1_[T8C]_[A9T]_T4.1]	407
UCUCUUUGUACUCGCUCUCUU (ssRNA) [Ic_S1_P4E.1_K4.1_C4.1_H4.1_A4.1_[T5C]_[A6T]_[T7C]_F4.1_[T8G]_[A9C]_T4.1]	972
UCUCUUUGUACCCCUUCUCUU (ssRNA) [Ic_S1_P4E.1_K4.1_C4.1_H4.1_A4.1_[T5C]_[A6C]_[T7C]_F4.1_[T8C]_[A9T]_T4.1]	808
UCUCUUUGUACUCCCUCUCUU (ssRNA) [Ic_S1_P4E.1_K4.1_C4.1_H4.1_A4.1_[T5C]_[A6T]_[T7C]_F4.1_[T8C]_[A9C]_T4.1]	508
UCUCUUUGUACUGCCUCUCUU (ssRNA) [Ic_S1_P4E.1_K4.1_C4.1_H4.1_A4.1_[T5C]_[A6T]_[T7G]_F4.1_[T8C]_[A9C]_T4.1]	684
UCUCUUUGUACUCAUUCUCUU (ssRNA) [Ic_S1_P4E.1_K4.1_C4.1_H4.1_A4.1_[T5C]_[A6T]_[T7C]_F4.1_[T8A]_[A9T]_T4.1]	150
UCUCUUUGUACUGCAUCUCUU (ssRNA) [Ic_S1_P4E.1_K4.1_C4.1_H4.1_A4.1_[T5C]_[A6T]_[T7G]_F4.1_[T8C]_T4.1]	668
UCUCUUUGUGUACAUCUCUU (ssRNA) [Ib_S1_P3E.1_K3.1_C3.1_H3.1_[A4G]_A3.1_F3.1_[T7C]_T3.1]	38.9

Binder	Kd [nM]
UCUCUUUGUACCCAGUCUCUU (ssRNA) [Ic_S1_P4E.1_K4.1_C4.1_H4.1_A4.1_[T5C]_[A6C]_[T7C]_F4.1_[T8A]_[A9G]_T4.1]	1230
UCUCUUUGUACCCAAUCUCUU (ssRNA) [Ic_S1_P4E.1_K4.1_C4.1_H4.1_A4.1_[T5C]_[A6C]_[T7C]_F4.1_[T8A]_T4.1]	833
UCUCUUUGUACCAAUUCUCUU (ssRNA) [Ic_S1_P4E.1_K4.1_C4.1_H4.1_A4.1_[T5C]_[A6C]_[T7A]_F4.1_[T8A]_[A9T]_T4.1]	103
UCUCUUUGUACCAACUCUCUU (ssRNA) [Ic_S1_P4E.1_K4.1_C4.1_H4.1_A4.1_[T5C]_[A6C]_[T7A]_F4.1_[T8A]_[A9C]_T4.1]	271
UCUCUUUGUACUGGUUCUCUU (ssRNA) [Ic_S1_P4E.1_K4.1_C4.1_H4.1_A4.1_[T5C]_[A6T]_[T7G]_F4.1_[T8G]_[A9T]_T4.1]	732
UCUCUUUGUACCCCCUCUCUU (ssRNA) [Ic_S1_P4E.1_K4.1_C4.1_H4.1_A4.1_[T5C]_[A6C]_[T7C]_F4.1_[T8C]_[A9C]_T4.1]	1090
UCUCUUUGUACCUACUCUCUU (ssRNA) [Ic_S1_P4E.1_K4.1_C4.1_H4.1_A4.1_[T5C]_[A6C]_F4.1_[T8A]_[A9C]_T4.1]	56.6
UCUCUUUGUACCAAGUCUCUU (ssRNA) [Ic_S1_P4E.1_K4.1_C4.1_H4.1_A4.1_[T5C]_[A6C]_[T7A]_F4.1_[T8A]_[A9G]_T4.1]	755
UCUCUUUGUACCCUUUCUCUU (ssRNA) [Ic_S1_P4E.1_K4.1_C4.1_H4.1_A4.1_[T5C]_[A6C]_[T7C]_F4.1_[A9T]_T4.1]	26.8
UCUCUUUGUACCACGUCUCUU (ssRNA) [Ic_S1_P4E.1_K4.1_C4.1_H4.1_A4.1_[T5C]_[A6C]_[T7A]_F4.1_[T8C]_[A9G]_T4.1]	652
UCUCUUUGUACCCUAUCUCUU (ssRNA) [Ic_S1_P4E.1_K4.1_C4.1_H4.1_A4.1_[T5C]_[A6C]_[T7C]_F4.1_T4.1]	7.5
UCUCUUUGUACCCGUUCUCUU (ssRNA) [Ic_S1_P4E.1_K4.1_C4.1_H4.1_A4.1_[T5C]_[A6C]_[T7C]_F4.1_[T8G]_[A9T]_T4.1]	842
UCUCUUUGUACCCCGUCUCUU (ssRNA) [Ic_S1_P4E.1_K4.1_C4.1_H4.1_A4.1_[T5C]_[A6C]_[T7C]_F4.1_[T8C]_[A9G]_T4.1]	> 2300
UCUCUUUGUACUGCGUCUCUU (ssRNA) [Ic_S1_P4E.1_K4.1_C4.1_H4.1_A4.1_[T5C]_[A6T]_[T7G]_F4.1_[T8C]_[A9G]_T4.1]	1280
UCUCUUUGUACCCUCUCUCUU (ssRNA) [Ic_S1_P4E.1_K4.1_C4.1_H4.1_A4.1_[T5C]_[A6C]_[T7C]_F4.1_[A9C]_T4.1]	41.9
UCUCUUUGUACCAGGUCUCUU (ssRNA) [Ic_S1_P4E.1_K4.1_C4.1_H4.1_A4.1_[T5C]_[A6C]_[T7A]_F4.1_[T8G]_[A9G]_T4.1]	1790
UCUCUUUGUACCUCGUCUCUU (ssRNA) [Ic_S1_P4E.1_K4.1_C4.1_H4.1_A4.1_[T5C]_[A6C]_F4.1_[T8C]_[A9G]_T4.1]	575
UCUCUUUGUACCACCUCUCUU (ssRNA) [Ic_S1_P4E.1_K4.1_C4.1_H4.1_A4.1_[T5C]_[A6C]_[T7A]_F4.1_[T8C]_[A9C]_T4.1]	573
UCUCUUUGUACUCCGUCUCUU (ssRNA) [Ic_S1_P4E.1_K4.1_C4.1_H4.1_A4.1_[T5C]_[A6T]_[T7C]_F4.1_[T8C]_[A9G]_T4.1]	969
UCUCUUUGUACCCAUUCUCUU (ssRNA) [Ic_S1_P4E.1_K4.1_C4.1_H4.1_A4.1_[T5C]_[A6C]_[T7C]_F4.1_[T8A]_[A9T]_T4.1]	517
UCUCUUUGUACCAGCUCUCUU (ssRNA) [Ic_S1_P4E.1_K4.1_C4.1_H4.1_A4.1_[T5C]_[A6C]_[T7A]_F4.1_[T8G]_[A9C]_T4.1]	913
UCUCUUUGUACUCUAUCUCUU (ssRNA) [Ic_S1_P4E.1_K4.1_C4.1_H4.1_A4.1_[T5C]_[A6T]_[T7C]_F4.1_T4.1]	3.48
UCUCUUUGUACCAAAUCUCUU (ssRNA) [Ic_S1_P4E.1_K4.1_C4.1_H4.1_A4.1_[T5C]_[A6C]_[T7A]_F4.1_[T8A]_T4.1]	68
UCUCUUUGUACUCUGUCUCUU (ssRNA) [Ic_S1_P4E.1_K4.1_C4.1_H4.1_A4.1_[T5C]_[A6T]_[T7C]_F4.1_[A9G]_T4.1]	30.5
UCUCUUUGCAUACAUCUCUU (ssRNA) [Ib_S1_P3E.1_K3.1_C3.1_H3.1_[T3C]_A3.1_F3.1_[T7C]_T3.1]	> 2300
